T1: cyno CD123 ECD displayed on pDisplay-transfected cells (cynomolgus monkey)
T1 construct: ECD anchored on the surface of stably transfected HEK293 cells; also called cynoCD123 SP1 cells; cynoCD123 cells
T1 chain: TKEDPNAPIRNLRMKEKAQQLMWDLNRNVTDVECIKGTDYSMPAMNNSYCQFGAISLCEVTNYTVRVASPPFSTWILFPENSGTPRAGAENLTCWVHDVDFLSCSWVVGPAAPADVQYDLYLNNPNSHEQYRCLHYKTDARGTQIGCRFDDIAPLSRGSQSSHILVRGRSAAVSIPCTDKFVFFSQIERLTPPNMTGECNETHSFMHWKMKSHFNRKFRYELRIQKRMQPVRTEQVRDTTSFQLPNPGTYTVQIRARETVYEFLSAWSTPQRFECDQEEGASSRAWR

T2: human CD123 SP2 ECD displayed on pDisplay-transfected cells (human, UniProt P26951 101-305)
T2 construct: ECD anchored on the surface of stably transfected HEK293 cells; also called hCD123 SP2 cells; pDisplay CD123SP2
T2 sequence: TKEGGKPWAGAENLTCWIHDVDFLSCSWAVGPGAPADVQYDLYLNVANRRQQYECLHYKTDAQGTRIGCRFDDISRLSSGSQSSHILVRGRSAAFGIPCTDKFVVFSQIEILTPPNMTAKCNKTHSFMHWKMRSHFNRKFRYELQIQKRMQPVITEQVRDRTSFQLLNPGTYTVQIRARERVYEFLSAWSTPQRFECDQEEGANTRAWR

T3: human CD123 SP1 ECD displayed on pDisplay-transfected cells (human, UniProt P26951 20-305)
T3 construct: ECD anchored on the surface of stably transfected HEK293 cells by the PDGFR transmembrane domain; also called hCD123 SP1 cells; hCD123 cells
T3 sequence: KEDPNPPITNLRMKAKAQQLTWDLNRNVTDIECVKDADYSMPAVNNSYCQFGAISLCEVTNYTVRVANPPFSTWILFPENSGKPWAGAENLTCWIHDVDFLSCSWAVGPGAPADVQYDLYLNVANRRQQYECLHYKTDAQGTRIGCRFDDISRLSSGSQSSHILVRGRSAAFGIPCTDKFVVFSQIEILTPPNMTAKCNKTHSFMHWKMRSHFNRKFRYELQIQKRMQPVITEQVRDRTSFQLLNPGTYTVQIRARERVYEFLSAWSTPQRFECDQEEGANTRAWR

T4: Recombinant human CD123 SP1 ECD-His tag protein (human, UniProt P26951 20-305)
T4 construct: bought from R&D Systems (#301-R3/CF); biotinylated for some assays; also called rhCD123 SP1; huCD123 ECD SP1
T4 sequence: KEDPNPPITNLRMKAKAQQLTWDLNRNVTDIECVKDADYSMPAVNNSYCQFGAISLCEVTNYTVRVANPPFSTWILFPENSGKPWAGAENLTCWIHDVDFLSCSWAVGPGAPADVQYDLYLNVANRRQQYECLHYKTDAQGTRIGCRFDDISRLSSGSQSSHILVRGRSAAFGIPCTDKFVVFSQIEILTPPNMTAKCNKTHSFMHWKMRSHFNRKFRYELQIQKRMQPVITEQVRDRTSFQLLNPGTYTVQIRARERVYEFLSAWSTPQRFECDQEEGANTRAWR

T5: Recombinant human CD123 SP2 ECD protein (human, UniProt P26951 101-303)
T5 construct: also called rhCD123 SP2; CD123 ECD SP2
T5 sequence: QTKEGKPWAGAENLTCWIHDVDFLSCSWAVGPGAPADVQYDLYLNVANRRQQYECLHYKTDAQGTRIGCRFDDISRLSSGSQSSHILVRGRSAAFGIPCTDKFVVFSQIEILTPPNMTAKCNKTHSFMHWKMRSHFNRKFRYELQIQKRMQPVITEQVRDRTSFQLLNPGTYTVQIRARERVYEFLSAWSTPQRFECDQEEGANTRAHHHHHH


Assays:
[1] = biological target: T1, cyno CD123 ECD displayed on …; test: MSD cell binding on 293F pDisplay cells; fold change over background; parental 293F cells as control
[2] = biological target: T2, human CD123 SP2 ECD displayed on …; test: as above
[3] = biological target: T3, human CD123 SP1 ECD displayed on …; test: as above
[4] = biological target: T4, Recombinant human CD123 SP1 ECD-His tag …; test: SPR Biacore 3000, captured Fab
Procedure: (§1) Kinetic studies were performed at 25° C. using a Biacore 3000 (BIAcore, Inc., now part of GE Healthcare). […] Sheep anti-Human Fd specific antibody (The binding site Prod # PC075) was covalently attached to two flow cells (normally 3 and 4) of the carboxymethyl dextran coated gold surfaces (CM-5 Chip, Biacore). The carboxymethyl groups of dextran were activated with N-Ethyl-N′-(3-Dimethylaminopropyl)carbodiimide (EDC) and N-hydroxysuccinimide (NHS). The antibodies were coupled at pH 4.5 in 10 mM sodium acetate. Any remaining reactive sites on the surface were blocked by reaction with ethanolamine. […] Association data was collected for 2 min followed by 10 min of dissociation. The surface was regenerated with 30 μL of 100 mM H3PO4 100 μL/min. All samples were prepared in D-PBS containing 3 mM EDTA and 0.005% surfactant P20. Data reported is the difference in SPR signal between the flow cell containing the captured antibody or Fab and a reference cell without captured antibody or Fab. Additional instrumental contributions to the signal were removed by subtraction of the data from the blank injection from the reference-subtracted signal. Data were performed in triplicate and analyzed by fitting association and dissociation phases at all concentrations (global fit) with a 1:1 binding model using the BIAevaluation software (BIAcore, Inc.). […] Data presented is an average.

[5] = biological target: T5, Recombinant human CD123 SP2 ECD protein; test: SPR Biacore 3000, captured Fab; footnote: assay response is lower than expected
Procedure: as §1

[6] = biological target: T1, cyno CD123 ECD displayed on …; test: MSD cell binding assay, signal 3x over background
Procedure: The object of the screening assay was to identify antibodies that bound to cells expressing hCD123 SP1 and SP2 as well as cross reactivity with cells expressing cynoCD123 SP1.
Cells were immobilized and phages were assayed in triplicate. […] 5000 cells per well were plated into a 384 well plate (MA6000, cat. L21XB, MSD) and allowed to adhere for 2 hr. Cells were then blocked with 20% FBS in PBS (Gibco) for 15 mins. Antibody supernatants were then added and left at RT for 1 hr. Cells were washed 3 times with PBS and a ruthenium labeled secondary antibody (Jackson Immuno Research) was then added at 1 μg/mL and incubated for 1 hr at room temperature. A further washing step was then applied and 35 μL per well of MSD Read buffer T (surfactant free) was then added and incubated for 30 min for detection. Plates were then read using Sector Imager 2400 (MSD). Data was normalized to controls and graphed using GraphPad Prism Version 5. A positive binder was determined to be a hit with a signal 3× greater than background (FIGS. 2A, B and C).

[7] = biological target: T4, Recombinant human CD123 SP1 ECD-His tag …; test: SPR ProteOn, captured mAb
[8] = biological target: IL3RA-PK (CD123 tagged with ProLink) in HEK293 IL3RA-PK/CSF2RB-EA cells (UniProt P26951 19-378); test: cell-based or functional assay
[9] = biological target: T1, cyno CD123 ECD displayed on …; test: MSD-CAT, cynoCD123 cells, assay-2
Procedure: (§2) The MSD-CAT was developed in-house as a label-free method to determine affinity using intact cells in a high throughput format. […] Cell lines used were human pDisplay CD and cyno pDisplay CD123SP1. […] These samples were prepared in DMEM Glutamax medium containing 0.05% Azide, 1% BSA, 3 mM EDTA. The receptor numbers of (3.15-4.18)×10⁶ hCD123/cell and (4.78-9.24) 10⁶ cyCD123/cell were converted to M receptor concentration in the mixture on the basis of the volume of reaction, the cell density (cells/L) and the Avogadro's number. […] After equilibration the plate was centrifuged for 5 min ˜1000 rpm and free anti-CD3 detected on the supernatant.

[10] = biological target: T3, human CD123 SP1 ECD displayed on …; test: MSD-CAT, hCD123 cells, assay-2
Procedure: (§3) After equilibration the plate was centrifuged for 5 min ˜1000 rpm and free anti-CD3 detected on the supernatant. […] The assay buffer was removed without washing and 50 μL/well of 0.7 μg/mL of biotinylated antigen in assay buffer were added to MSD plates and incubated overnight (˜16 hr at 4° C.). After overnight incubation, the plates were blocked by adding 150 μL/well of assay buffer without removing coating antigen, incubated for ˜1 hr at ambient temperature and washed 5 times with wash buffer (assay buffer without BSA). 50 μL/well of the supernantants from samples plate were transferred to antigen-coated plates, incubated for 60 min, and then washed three times with wash Buffer. After this 50 μL per well of ruthenium labeled detection antibody(anti-human H+L) were added and incubated for 1 hr. After 1 hr the plates were washed and 150 μL of MSD Read Buffer (prepared by diluting 1:4 of stock into d. H₂O) were added per well. The plates were read immediately on the MSD Sector Imager 6000 Reader for luminescence levels. ECL signal detected by MSD was expressed in term of % free antibody in the mixture and the data was analyzed to determine affinity using a user defined equation (derived from the law of mass action) introduced in Prism software.

[11] = biological target: T5, Recombinant human CD123 SP2 ECD protein; test: SPR Biacore 3000, captured Fab
Procedure: as §1

[12] = biological target: T1, cyno CD123 ECD displayed on …; test: MSD-CAT, cynoCD123 cells, assay-1
Procedure: as §2

[13] = biological target: T1, cyno CD123 ECD displayed on …; test: MSD-CAT on pDisplay cells
Procedure: as §3

[14] = biological target: T3, human CD123 SP1 ECD displayed on …; test: MSD-CAT, hCD123 cells, assay-1
Procedure: as §3

[15] = biological target: T3, human CD123 SP1 ECD displayed on …; test: MSD-CAT, hCD123 cells, assay-1, fit with parameter Bo constrained
Procedure: as §3

[16] = biological target: T3, human CD123 SP1 ECD displayed on …; test: MSD-CAT, hCD123 cells, assay-2, fit with parameter Bo constrained
Procedure: as §3

| Kd [4] [nM] | koff [4] [s⁻¹] | kon [4] [M⁻¹ s⁻¹] | Kd [9] [nM] | Kd [10] [nM] | Kd [11] [nM] | Kd [12] [nM] | Kd [14] [nM] | Binder | also measured |
| --- | --- | --- | --- | --- | --- | --- | --- | --- | --- |
| – | – | – | – | – | – | – | – | I3RB25 (antibody, V domains shown) VH: QVQLVQSGAEVKKPGSSVKVSCKASGGTFSSYGISWVRQAPGQGLEWMGGISAIFGNANYAQKFQGRVTITADESTSTAYMELSSLRSEDTAVYYCARRFKWWESYFDYWGQGTLVTVSS VL: not shown | binding result [1]: no binding (tested: 10 µg/mL); binding result [2]: no binding (tested: 10 µg/mL); binding result [3]: no binding (tested: 10 µg/mL) |
| 6.3 | 0.00245 | 387000 | – | – | – | – | – | I3RB121 (Fab, V domains shown, also called Fab of I3RB35) VH: QVQLVQSGAEVKKPGSSVKVSCKASGGTFSSYAISWVRQAPGQGLEWMGGIIPIFGTANYAQKFQGRVTITADESTSTAYMELSSLRSEDTAVYYCARHLFWDAGPLDYWGQGTLVTVSS VL: DIQMTQSPSSLSASVGDRVTITCRASQSISSYLNWYQQKPGKAPKLLIYAASSLQSGVPSRFSGSGSGTDFTLTISSLQPEDFATYYCQQYFSPPYTFGQGTKVEIK | Kd [5]: 1.2 nM |
| – | – | – | – | – | – | – | – | I3RB21 (antibody, IgG1, V domains shown, IgG1) VH: QVQLVQSGAEVKKPGSSVKVSCKASGGTFSSYAISWVRQAPGQGLEWMGGIIPIFGTANYAQKFQGRVTITADESTSTAYMELSSLRSEDTAVYYCAREGWWGQGKFDYWGQGTLVTVSS VL: EIVLTQSPATLSLSPGERATLSCRASQSVANFLAWYQQKPGQAPRLLIYAASNRATGIPARFSGSGSGTDFTLTISSLEPEDFAVYYCQQYFHWPYTFGQGTKVEIK | binding result [6]: binds; Kd [7]: 2.19 nM; koff [7]: 0.00114 s⁻¹; kon [7]: 521000 M⁻¹ s⁻¹ |
| – | – | – | – | – | – | – | – | I3RB217 (antibody, human IgG4 S228P, kappa, F234A L235A, V domains shown) VH: EVQLVQSGAEVKKPGESLKISCKGSGYSFTSYWISWVRQMPGKGLEWMGIIDPSDSDTRYSPSFQGQVTISADKSISTAYLQWSSLKASDTAMYYCARGDGSTDLDYWGQGTLVTVSS VL: EIVLTQSPGTLSLSPGERATLSCRASQSVSSSYLAWYQQKPGQAPRLLIYGASSRATGIPDRFSGSGSGTDFTLTISRLEPEDFAVYYCQQDYGFPWTFGQGTKVEIKR | IC50 (read off the curve): IL-3-induced CD123/CD131 heteromerization (RLU) [8]: ~0.1 µg/mL |
| 1.8 | 0.000891 | 493000 | > 11.9 | 0.367 | 0.4 | > 15 | 0.293 | I3RB119 (Fab, V domains shown, also called Fab I3RB119; I3RB18 Fab) VH: EVQLVQSGAEVKKPGESLKISCKGSGYSFTSYWISWVRQMPGKGLEWMGIIDPSDSDTRYSPSFQGQVTISADKSISTAYLQWSSLKASDTAMYYCARGDGSTDLDYWGQGTLVTVSS VL: EIVLTQSPGTLSLSPGERATLSCRASQSVSSSYLAWYQQKPGQAPRLLIYGASSRATGIPDRFSGSGSGTDFTLTISRLEPEDFAVYYCQQDYGFPWTFGQGTKVEIK | fold weaker than to human CD123 SP1 [13]: > 10 fold |
| 8.5 | 0.00304 | 357000 | > 11.9 | ~3.84 | 1.4 | 2.4 | ~0.00337 | I3RB120 (Fab, V domains shown, also called Fab I3RB120; I3RB2 Fab) VH: EVQLLESGGGLVQPGGSLRLSCAASGFTFSGYWMHWVRQAPGKGLEWVSAIRSDGSSKYYADSVKGRFTISRDNSKNTLYLQMNSLRAEDTAVYYCAKDGVIEDTFDYWGQGTLVTVSS VL: EIVLTQSPATLSLSPGERATLSCRASQSVSSYLAWYQQKPGQAPRLLIYDASNRATGIPARFSGSGSGTDFTLTISSLEPEDFAVYYCQQRSNWPLTFGQGTKVEIK | Kd [15]: 344 nM; Kd [16]: 3.81 nM; fold difference of affinity against human CD123 SP1 [13]: < 5 fold |
